Test results taken from paper PMC3404464 (ACS medicinal chemistry letters, 2012).

Key:
[1] = target: lytic transglycosylase MltB of Escherichia coli (Escherichia coli, UniProt P41052); experiment: MltB binding by intrinsic tryptophan/tyrosine fluorescence; conditions: excitation 280 nm
[2] = tested on: CO[C@@H]1O[C@H](CO)[C@@H](O[C@@H]2O[C@H](CO)[C@@H](O)[C@H](O)[C@H]2NC(C)=O)[C@H](O[C@H](C)C(=O)N[C@@H](C)C(=O)N[C@H](CCC(=O)N[C@@H](CCC[C@@H](N)C(=O)O)C(=O)N[C@H](C)C(=O)N[C@H](C)C(=O)O)C(=O)O)[C@H]1NC(C)=O; experiment: Turnover of synthetic substrates by NagZ; format: biochemical, Pseudomonas aeruginosa; conditions: other: substrate hydrolysis by NagZ
[3] = tested on: CC(=O)N[C@H]1[C@H](O[C@H]2[C@H](O[C@H](C)C(=O)N[C@@H](C)C(=O)N[C@H](CCC(=O)N[C@@H](CCC[C@@H](N)C(=O)O)C(=O)N[C@H](C)C(=O)N[C@H](C)C(=O)O)C(=O)O)[C@@H](NC(C)=O)[C@@H]3OC[C@H]2O3)O[C@H](CO)[C@@H](O)[C@@H]1O; experiment: Turnover of synthetic substrates by NagZ; format: biochemical, Pseudomonas aeruginosa; conditions: other: substrate hydrolysis by NagZ

lytic transglycosylase MltB of Escherichia coli, sequence (P41052 19-361): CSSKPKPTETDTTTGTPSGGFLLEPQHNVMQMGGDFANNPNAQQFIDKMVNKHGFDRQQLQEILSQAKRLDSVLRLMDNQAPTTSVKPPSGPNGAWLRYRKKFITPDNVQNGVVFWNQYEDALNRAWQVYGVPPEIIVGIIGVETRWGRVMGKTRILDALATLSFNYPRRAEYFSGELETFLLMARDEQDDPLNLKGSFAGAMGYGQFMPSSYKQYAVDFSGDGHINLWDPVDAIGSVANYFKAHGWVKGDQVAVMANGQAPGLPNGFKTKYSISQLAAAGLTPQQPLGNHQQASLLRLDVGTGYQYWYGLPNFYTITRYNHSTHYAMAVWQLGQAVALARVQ

Row | Compound | kns (non-saturable, presumably non-specific binding mode) [1] [µM⁻¹] | Km [2] [µM] | kcat [2] [s⁻¹] | kcat/Km [2] | Km [3] [µM] | kcat [3] [s⁻¹] | kcat/Km [3]
1 | CC(=O)N[C@H]1CN[C@H](CO)[C@@H](O)[C@@H]1O.Cl [compound 3, 2-acetamido-1,2-dideoxynojirimycin] | 0.128 ± 0.004 |  |  |  |  |  | 
2 | NagZ of P. aeruginosa (Pseudomonas aeruginosa PAO1) |  | 165 ± 36 | 0.77 ± 0.04 | (0.5 ± 0.1) × 10^4 M^−1s^−1 | 104 ± 2 | 6.6 ± 0.2 | 6.3 ± 0.2 × 10^4 M^−1s^−1
3 | CC(=O)N[C@H]1CN[C@H](CO)[C@@H](O)[C@@H]1O[C@H](C)C(=O)O.Cl [compound 4] | 0.060 ± 0.006 |  |  |  |  |  | 
